Reference: the supplement of paper PMC10567573

B1: ZMYND11 (parent)
chain: YCSIKCQQEHWHAEHKRTCRRKR
B2: CAMK2D (parent)
chain: LLKHPNIVRLHDSISEEGFHYLVF

Variants of: B1
Assay: protein stability index of a GFP-peptide fusion (GPS, HEK-293T) (PSI 1-6); higher = more stable
Conditions: c terminus: native
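Further: lentivirally expressed fusions sorted by FACS into six bins by GFP to DsRed ratio, PSI derived from sequencing read proportions per bin multiplied by bin number.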

Point of comparison: S3G, protein stability index 1.86. Against it:
- C2F — higher, 2.89
- C2G — higher, 2.8
- C2E — higher, 2.87
- C2A — higher, 2.1
- C2I — higher, 1.92
- C2L — higher, 2.32
- C2Y — higher, 2.85
- C2K — higher, 2.68
- C2V — lower, 1.45
- C2D — higher, 3.76
- C2Q — lower, 1.79
- C2H — lower, 1.54
- C2R — higher, 3.01
- C2N — higher, 3.64
- C2M — higher, 3.01
- C2S — higher, 3.1
- C2P — higher, 2.2
- C2T — higher, 3.44
- K5A — higher, 2.09
- K5C — higher, 3.25
- Y1L — higher, 2.86
- Y1M — higher, 3.94
- Y1P — higher, 3.46
- Y1T — higher, 3.67
- Y1E — higher, 2.91
- Y1I — higher, 3.23
- Y1K — higher, 3.12
- Y1G — higher, 3.74
- Y1F — lower, 1.67
- Y1N — higher, 3.79
- Y1Q — higher, 3.91
- Y1C — higher, 3.8
- Y1S — higher, 4.09
- Y1A — higher, 3.95
- Y1D — higher, 2.58
- Y1H — higher, 3.9
- Y1R — higher, 3.62
- Y1V — higher, 3.71
- Y1W — higher, 2.29
- S3Y — higher, 1.94
- S3N — higher, 2.85
- S3C — higher, 3.31
- S3K — higher, 2.61
- S3H — higher, 2.24
- S3T — higher, 2.48
- S3V — higher, 2.36
- S3M — higher, 2.19
- S3W — lower, 1.51
- S3R — higher, 2.19
- S3E — higher, 3.27
- S3P — higher, 2.17
- S3I — lower, 1.84
- S3F — lower, 1.11
- S3D — higher, 3.07
- S3A — higher, 1.96
- S3Q — higher, 2.59
- S3L — lower, 1.7
- I4W — higher, 1.89
- I4F — higher, 2.66
- I4G — lower, 1.84
- I4R — higher, 2.79
- I4H — higher, 2.62
- I4D — higher, 2.6
- I4M — lower, 1.83
- I4L — higher, 2.14
- I4P — higher, 2.38
- I4V — higher, 2.51
- I4E — higher, 3.25
- I4A — higher, 2.76
- I4C — higher, 2.67
- I4N — higher, 2.9
- I4Q — higher, 1.94
- I4T — higher, 2.08
- I4S — higher, 2.51
- I4K — higher, 2.37
- I4Y — higher, 3.92

Variants of: B2
Assay: as above
Conditions: c terminus: a fixed tail appended

Point of comparison: H20C, protein stability index 2.07. Against it:
- I14R — lower, 1.75
- I14A — lower, 1.66
- I14Q — lower, 1.78
- I14E — higher, 2.8
- I14S — higher, 2.15
- I14V — higher, 2.11
- I14H — lower, 1.11
- I14K — higher, 2.4
- I14C — higher, 2.44
- I14W — lower, 1.4
- I14N — lower, 2.05
- I14P — higher, 2.74
- I14Y — lower, 1.89
- I14D — lower, 1.64
- I14M — lower, 1.18
- I14G — lower, 1.64
- I14T — lower, 1.91
- V23H — higher, 2.57
- V23L — lower, 2
- V23R — higher, 3.22
- V23T — higher, 3.35
- V23A — higher, 2.81
- V23F — lower, 1.91
- V23W — higher, 2.78
- V23E — lower, 1.38
- V23N — higher, 3.14
- V23K — lower, 1.68
- V23Q — lower, 1.87
- V23Y — lower, 1.22
- V23G — higher, 2.12
- V23D — higher, 2.19
- V23P — lower, 1.84
- V23M — higher, 2.91
- V23I — lower, 1.99
- V23S — lower, 1.85
- S15Y — higher, 2.34
- S15F — higher, 2.56
- S15G — lower, 1.8
- S15E — higher, 2.57
- S15T — lower, 1.3
- S15M — higher, 3.4
- S15P — higher, 2.27
- S15N — higher, 2.31
- S15I — higher, 3.54
- S15W — higher, 3.22
- S15R — higher, 2.66
- S15L — higher, 2.19
- S15V — higher, 2.2
- S15A — higher, 2.19
- S15K — higher, 2.45
- S15C — higher, 2.51
- S15D — lower, 1.44
- S15H — higher, 2.1
- Y21G — higher, 2.37
- Y21R — higher, 2.63
- Y21P — lower, 1.96
- Y21K — lower, 1.8
- Y21C — lower, 2
- Y21D — higher, 2.51
- Y21L — lower, 1.97
- Y21W — higher, 2.79
- Y21E — higher, 2.32
- Y21T — higher, 2.25
- Y21F — higher, 2.92
- Y21S — higher, 2.33
- Y21I — lower, 1.79
- Y21Q — higher, 2.39
- Y21M — higher, 2.58
- Y21H — lower, 2.03
- Y21N — higher, 2.39
- Y21A — lower, 1.38
- H20F — higher, 2.39
- H20S — higher, 2.75
- H20P — higher, 2.08
- H20L — higher, 2.31
- H20K — higher, 2.66
- H20E — higher, 3.1
- H20R — higher, 2.08
- H20Y — lower, 1.41
- H20I — higher, 3.5
- H20Q — higher, 2.65
- H20V — higher, 3.17
- H20M — lower, 2.05
- H20A — lower, 1.73
- H20W — lower, 1.42
- H20T — higher, 3.25
- H20D — lower, 1.96
- F24Y — higher, 2.28
- F24H — higher, 2.39
- F24P — lower, 1.98
- F24E — lower, 1.73
- F24L — higher, 2.94
- F24C — lower, 1.84
- F24S — higher, 2.13
- F24N — lower, 1.51
- F24K — lower, 1.71
- F24R — lower, 2.06
- F24W — lower, 1.22
- F24D — higher, 2.21
- F24T — lower, 1.15
- F24V — higher, 2.12
- F24Q — lower, 1.85
- F24G — higher, 2.47
- F24A — lower, 1.62
- L10P — higher, 2.49
- L10W — higher, 3.54
- L10I — higher, 2.53
- L10M — higher, 3.69
- L10Q — lower, 1.7
- L10S — lower, 1.86
- L10V — lower, 1.75
- L10N — higher, 2.25
- L10K — lower, 2.02
- L10H — higher, 2.14
- L10G — lower, 1.36
- L10Y — higher, 2.95
- L10R — lower, 1.17
- L10T — lower, 1.43
- E16N — higher, 2.87
- E16C — higher, 2.3
- E16F — higher, 2.32
- E16P — lower, 1.62
- E16Q — higher, 3.03
- E16W — lower, 1.92
- E16V — lower, 1.39
- E16M — higher, 2.71
- E16S — lower, 1.19
- E16K — lower, 1.21
- E16R — lower, 1.67
- E16D — lower, 1.67
- E16A — higher, 2.88
- E16L — higher, 2.47
- E16T — lower, 1.39
- D12R — higher, 3.07
- D12P — higher, 2.38
- D12S — higher, 3
- D12C — higher, 3.3
- D12Q — lower, 1.31
- D12F — higher, 4.12
- D12N — lower, 1.61
- D12V — higher, 2.63
- D12Y — higher, 2.35
- D12A — higher, 2.96
- D12K — higher, 3.1
- D12H — higher, 3.02
- D12T — higher, 2.59
- D12L — higher, 2.47
- D12G — higher, 3.51
- D12I — higher, 2.54
- G18L — higher, 3.43
- G18I — lower, 2
- G18D — higher, 2.39
- G18W — lower, 1.61
- G18H — lower, 1.78
- G18P — lower, 2.03
- G18R — higher, 3.12
- G18Y — lower, 1.8
- G18Q — lower, 1.94
- G18A — higher, 3.26
- G18E — lower, 1.63
- G18K — higher, 3.36
- G18F — higher, 2.73
- G18C — lower, 1.98
- G18N — lower, 1.5
- G18M — higher, 2.1
- G18T — lower, 1.87
- G18S — higher, 2.3
- L22V — lower, 1.03
- L22Y — lower, 2.02
- L22M — higher, 2.59
- L22Q — lower, 1.3
- L22W — lower, 1.88
- L22R — lower, 1.28
- L22C — higher, 2.18
- L22F — higher, 2.36
- L22K — higher, 2.54
- L22E — higher, 2.22
- L22G — lower, 1.57
- L22P — lower, 1.81
- L22T — higher, 2.39
- L22S — lower, 1.81
- L22D — higher, 2.08
- L22A — higher, 3.02
- L22N — lower, 1.75
- L22H — higher, 2.19
- L22I — higher, 2.96
- F19H — lower, 1.73
- F19Q — higher, 2.66
- F19N — lower, 2.03
- F19K — higher, 3.11
- F19G — lower, 1.23
- F19I — higher, 2.73
- F19D — lower, 1.73
- F19V — lower, 1.52
- F19S — lower, 1.45
- F19C — lower, 1.37
- F19A — lower, 1.81
- F19M — higher, 2.08
- F19T — higher, 3.57
- F19P — lower, 1.53
- F19E — higher, 2.38
- F19W — higher, 2.42
- F19Y — higher, 2.08
- F19R — lower, 2.02
- E17Q — lower, 1.84
- E17H — lower, 1.87
- E17Y — lower, 2.04
- E17D — higher, 2.66
- E17S — higher, 2.93
- E17A — higher, 2.91
- E17M — higher, 4.04
- E17T — higher, 2.31
- E17R — higher, 2.11
- E17P — higher, 2.75
- E17C — higher, 2.99
- E17W — higher, 2.94
- E17F — higher, 2.27
- E17G — higher, 2.8
- E17V — higher, 2.47
- E17L — higher, 3.59
- E17N — higher, 3.79
- E17K — higher, 2.71
- H11L — lower, 1.48
- H11N — higher, 2.29
- H11Y — higher, 2.88
- H11Q — the same, 2.07
- H11D — higher, 2.39
- H11E — higher, 2.68
- H11S — lower, 1.8
- H11R — higher, 2.79
- H11W — higher, 2.62
- H11T — higher, 2.52
- H11P — higher, 2.42
- H11C — higher, 2.84
- H11I — higher, 2.7
- H11A — higher, 2.57
- H11F — lower, 1.96
- H11V — lower, 1.9
- H11K — higher, 3.01
- S13H — higher, 2.91
- S13G — higher, 2.59
- S13R — lower, 1.83
- S13P — higher, 2.75
- S13K — higher, 2.81
- S13D — higher, 2.46
- S13Q — lower, 1.7
- S13C — higher, 2.82
- S13Y — higher, 2.94
- S13E — lower, 1.47
- S13L — higher, 2.29
- S13I — higher, 2.96
- S13F — lower, 1.5
- S13A — higher, 3.1
- S13V — higher, 3.9
- S13N — higher, 2.13
- S13W — lower, 1.84
